According to patent publication US11938195B2, “Upconversion nanoparticle peptide conjugates” (BP InnoMed Limited, priority 2021, dated 2024):
Where a SMILES comes first, the peptide text is derived from it. Where no end group is shown, it is not given here. [ ]: non-standard residue; d: D form. Ahx = NCCCCCC(=O)O

Key:
[1] = tested on: EBV-positive C666 cells; assay: MTT cytotoxicity assay, C666 cells; conditions: 24 h
Procedure: The inhibitory effects of the novel nanoprobes on both EBV-infected cancer cells and non-EBV-infected cancer cells were investigated by MTT assays to test the cell viability. The cytotoxic assays were performed in EBV-positive C666 and NPC43 cells, LMP1-positive LCL3 and Raji cells, and the LMP1-positive and -negative HK1 cell pair. HK1, MRC-5 and HeLa cell lines are EBV-negative and they serve as negative controls. […] In addition, UCNP-P4, EBNA1-specific peptide coated UCNPs was included as control group, so the ability of inhibiting EBV-related cancer cells can be directly compared with UCNP-Pn [n=5, 6 and 7 (SEQ ID NO: 5, 6, 7)].
In vitro cytotoxic assays: The cytotoxicity of our nanoprobes was determined by MTT reduction assay. The cells (3×10^3 per well) were seeded onto 96-well plates and incubated overnight, followed by treatment with Pn [n=5, 6 and 7 (SEQ ID NO: 5, 6, 7)], UCNP, UCNP-Pn [n=5, 6 and 7 (SEQ ID NO: 5, 6, 7)] and UCNP-P4 individually at 37° C., 5% CO2 for 24 h in dark. The cell monolayers were rinsed with PBS and 50 μL of MTT, 3-(4,5-dimethylthiazol-2-yl)-2,5-diphenyltetrazolium bromide solution (0.5 mg mL^−1) was added per well and the cells were further incubated for 3 h at 37° C. The solution was subsequently discarded, and the formazan crystals were dissolved in 100 μL of DMSO per well under shaking. The absorptions of the formazan crystal solutions at 540 nm and 690 nm were measured using a dual-wavelength Labsystem Multiskan microplate reader (Merck Eurolab).

[2] = tested on: p65; assay: Western blot of p65 (NF-κB) in LCL3 cells; format: cell-based
Text: (§1) NF-κB signaling pathway is critical for the survival of EBV-infected tumor cells. Here we investigated if our nanoprobes could affect this oncogenic pathway. EBV-positive LCL3 and C666 cells were used as models, EBV-negative HK1 cells were used as control and Western blot was used to analyze the protein expression of p65, a major transcription factor in the NF-κB family. […] GAPDH and Histone are regarded as internal standards in cytosolic and nuclear fractions, respectively. […] This is consistent with the cellular uptake results.
(§2) Western blotting: EBV-positive C666, LCL3 and EBV-negative HK1 cell pellets were treated with phosphatase and protease inhibitors at 0-4° C. for 30 min. The total protein concentrations were calculated by protein absorbance. The protein was resolved by sodium dodecyl sulfate-polyacrylamide gel electrophoresis (SDS-PAGE) and transferred to cellulose filter membranes. The membranes were blocked with 3% BSA in Tris-buffered saline in 0.1% Tween 20 (TBST) for 1 h with gentle shaking and subsequently incubated with primary antibodies (1:1000) in 3% BSA in TBST at 4° C. for overnight. After rinsing with TBST buffer three times, the blots were then incubated with corresponding secondary anti-rabbit antibody (1:6000) for 1 h. After that, the blots were rinsed again with 3% BSA in TBST for 1 h shaking at room temperature. Lastly, the density of bands was determined by image analysis system after washing with TBST buffer three times.

[3] = tested on: p65; assay: Western blot of p65 (NF-κB) in C666 cells; format: cell-based
Text: as §1, §2

[4] = tested on: C666 derived xenografts; assay: In vivo suppression assay, C666 xenograft; conditions: for Effect on average tumor size: 12.5 mg/kg, intravenous (tail vein), twice a week, 33 days; for Body weight: C666 tumor-bearing mice, 33-day experimental period
Text: To determine the antitumor efficacy of the new nanoprobes in vivo, their therapeutic effects were investigated in C666 and HeLa derived xenografts in BALB/c nude mice. The mice were randomly divided into five groups: (1) control (PBS), (2) UCNP, (3) UCNP-P5, (4) UCNP-P6, (5) UCNP-P7. In order to recapitulate the clinical setting of drug delivery, intravenous injection (via a tail vein) was used to deliver these agents to the immunocompromised animal.
In vivo suppression assays: EBV-positive C666 and EBV-negative HeLa cells were suspended in 200 μL of serum-free RMPI 1640 and DMEM respectively. Female BALB/c nude mice (6-8 weeks) which obtained from HKU were then injected with the cells in the right flank. Intravenous injections were performed when the average tumor volumes reached ˜200 mm^3. 0.25 mg/tumor dose of UCNP and UCNP-Pn [n=5, 6 and 7 (SEQ ID NO: 5, 6, 7)] in […] PBS buffer were injected through tail vein of mice using a 24-gauge syringe. Mice injected with the same volume of PBS buffer served as control. The body weight and tumor volumes of the mice were measured three times per week; in which the latter is calculated by (L×W^2)/2, where L and W are the longer and shorter tumor dimensions respectively. Intravenous injection at the tail vein were performed twice a week and the mice were sacrificed after 33-day experimental period; the tumors were extracted and weighed. The treatment groups are unknown to the investigators for the experimental and data analysis processes. The animal experiments conducted were approved by the Department of Health of the HKSAR Government. All animal procedures are within the Guidelines for Care and Use of Laboratory Animals of HKBU and approved by the Animal Ethics Committee of HKBU.
Hematoxylin and eosin (H&E) staining: In general, the transplanted C666 and HeLa derived tumor tissues were collected and fixed with formalin, followed by embedding in paraffin. The histologic sections were then stained with hematoxylin and eosin. Other major organ tissues (heart, liver, spleen, lung, kidney, brain) were conducted in the same procedures.

[5] = Peptide release from nanoprobes under various time intervals (UV-vis absorbance); format: physicochemical; conditions: 0.5 mg/mL
Text: The stability and capability of cleavage of the pH linker were also studied. […] More importantly, TEM images of UCNP-P5 at different pH buffers were observed and investigated in FIG. 1, providing direct evidence on pH-responsive peptide release from UCNP.

[6] = Peptide release from nanoprobes under various pH buffers (UV-vis absorbance); format: physicochemical; conditions: 24 h in buffer, 0.5 mg/mL
Text: The stability and capability of cleavage of the pH linker were also studied. […] More importantly, TEM images of UCNP-P5 at different pH buffers were observed and investigated in FIG. 1, providing direct evidence on pH-responsive peptide release from UCNP. […]

[7] = molecular target: EBNA1 (DNA-binding domain fragment of a.a.468-607) (Epstein-Barr virus, UniProt P03211); assay: EBNA1 dimerization/oligomerization inhibition assay; format: biochemical; conditions: 0.3 mg/mL nanoprobe, 90 mg EBNA1, DSS crosslinking, SDS gel
Sequence of EBNA1 (DNA-binding domain fragment of a.a.468-607) (P03211 468-607): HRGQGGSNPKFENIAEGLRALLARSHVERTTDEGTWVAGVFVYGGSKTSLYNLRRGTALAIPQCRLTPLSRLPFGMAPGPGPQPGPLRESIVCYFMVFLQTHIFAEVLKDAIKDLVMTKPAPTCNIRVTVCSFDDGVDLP
Procedure: EBNA1 dimerization/oligomerization inhibition assays were performed to reveal the ability of interrupting EBNA1 dimerization/oligomerization in the presence of the previous nanoprobe UCNP-P4 and the nanoplatforms in situ.
(conc.: 0.3 mg/mL) at 4° C. overnight. Then, 2 mM disuccinimidyl suberate (DSS) was added to allow the samples to undergo crosslinking reaction at room temperature for 30 min. The samples were run and separated on an SDS-denaturing gel and proteins were detected using Coomassie Blue staining. PBS buffer was used as control group.

[8] = tested on: EBV-positive C666 cells; assay: Two-photon confocal imaging, C666; format: cell-based; conditions: mainly from the nuclei, 24 h incubation
Procedure: After the study of cellular uptake, fluorescent confocal microscopy was used to study the sub-cellular localization with the same set of EBV-/LMP1-positive and -negative cell lines. All these cell lines were treated with as-prepared samples for different time intervals of 1 h, 3 h, 6 h, 12 h and 24 h. Fluorescence signals in the cells were imaged under 980 nm excitation.
The cells were then co-stained with 0.05 mM nuclear dye DRAQ5 for 0.5 h for confocal imaging with a Leica SP8 confocal microscope equipped with a coherent femtosecond laser (690-1050 nm), argon laser (432 nm, 457 nm and 488 nm), He—Ne laser (632 nm), UV lamp. A stage-top cell culture chamber was also used to maintain the atmospheric conditions of 2-7% CO2 and a temperature of 37° C.

Molecule	Cytotoxicity of free peptides (MTT cell viability) [1]	Peptide release rate ([5]; 1 h)	Peptide release rate ([5]; 3 h)	Peptide release rate ([5]; 6 h)	Peptide release rate ([5]; 12 h)	Peptide release rate ([5]; 24 h)	Peptide release rate ([5]; 3 day)	Peptide release rate ([5]; 7 day)	Peptide release rate ([6]; pH 5.0)	Peptide release rate ([6]; pH 5.5)	Peptide release rate ([6]; pH 6.0)	Peptide release rate ([6]; pH 6.5)	Peptide release rate ([6]; pH 7.0)	Peptide release rate ([6]; pH 7.4)	Responsive emission enhancement (lambda scan) [8]	Effect on average tumor size [4]	Body weight [4]	other results
CSCC[C@H](NC(=O)[C@H](Cc1ccccc1)NC(=O)[C@H](Cc1ccc(O)cc1)NC(=O)CCCCCN)C(=O)N[C@H](C(=O)N[C@@H](Cc1ccccc1)C(=O)NCC(=O)NCC(=O)N[C@@H](CCCNC(=N)N)C(=O)N[C@H](CCCNC(=N)N)C(=O)N[C@@H](CCCNC(=N)N)C(=O)N[C@@H](CCCCN)C(=O)NCC(=O)NCC(=O)N[C@@H](Cc1ccccc1)C(=O)N[C@@H](Cc1c[nH]c2ccccc12)C(=O)N[C@@H](CC(C)C)C(=O)N[C@@H](Cc1ccc(O)cc1)C(=O)O)C(C)C [P5, -Ahx-YFMVFGGRrRKGGFWLY (SEQ ID NO:5)] (H-[Ahx]YFMVFGGR[dR]RKGGFWLY-OH; C-terminus assumed)	capable of selectively targeting and killing EBV-infected cells	–	–	–	–	–	–	–	–	–	–	–	–	–	–	–	–	Decreased p65 expression, nuclear fraction [2]: 86%; Decreased p65 expression, nuclear fraction [3]: 89%
CSCC[C@H](NC(=O)[C@H](Cc1ccccc1)NC(=O)[C@H](Cc1ccc(O)cc1)NC(=O)CNC(=O)CNC(=O)[C@H](CCCCN)NC(=O)[C@H](CCCNC(=N)N)NC(=O)[C@@H](CCCNC(=N)N)NC(=O)[C@H](CCCNC(=N)N)NC(=O)CCCCCN)C(=O)N[C@H](C(=O)N[C@@H](Cc1ccccc1)C(=O)NCC(=O)NCC(=O)N[C@@H](Cc1ccccc1)C(=O)N[C@@H](Cc1c[nH]c2ccccc12)C(=O)N[C@@H](CC(C)C)C(=O)N[C@@H](Cc1ccc(O)cc1)C(=O)O)C(C)C [P6, -Ahx-RrRKGGYFMVFGGFWLY (SEQ ID NO:6)] (H-[Ahx]R[dR]RKGGYFMVFGGFWLY-OH; C-terminus assumed)	capable of selectively targeting and killing EBV-infected cells	–	–	–	–	–	–	–	–	–	–	–	–	–	–	–	–	–
CSCC[C@H](NC(=O)[C@H](Cc1ccccc1)NC(=O)[C@H](Cc1ccc(O)cc1)NC(=O)CNC(=O)CNC(=O)[C@H](CCCCN)NC(=O)[C@H](CCCNC(=N)N)NC(=O)[C@@H](CCCNC(=N)N)NC(=O)[C@H](CCCNC(=N)N)NC(=O)CNC(=O)CNC(=O)[C@H](Cc1ccc(O)cc1)NC(=O)[C@H](CC(C)C)NC(=O)[C@H](Cc1c[nH]c2ccccc12)NC(=O)[C@H](Cc1ccccc1)NC(=O)CCCCCN)C(=O)N[C@H](C(=O)N[C@@H](Cc1ccccc1)C(=O)O)C(C)C [P7, -Ahx-FWLYGGRrRKGGYFMVF (SEQ ID NO:7)] (H-[Ahx]FWLYGGR[dR]RKGGYFMVF-OH)	capable of selectively targeting and killing EBV-infected cells	–	–	–	–	–	–	–	–	–	–	–	–	–	–	–	–	–
NaGdF4:Yb^3+, Er^3+@NaGdF4 [UCNP, reference compound]	–	–	–	–	–	–	–	–	–	–	–	–	–	–	–	–	–	Tumor uptake (ICP-MS biodistribution) ([4]; mouse, in vivo): nearly undetectable in the tumor
UCNP-P6: UCNP is NaGdF4:Yb^3+, Er^3+@NaGdF4 and the plurality of polypeptides is Ahx-RrRKGGYFMVFGGFWLY (SEQ ID NO: 6) ([Ahx]R[dR]RKGGYFMVFGGFWLY; also: UCNP conjugate)	–	0%	0%	0.3%	0.8%	1.4%	1.9%	5.9%	83.3%	34.1%	32.2%	21.5%	4.6%	0%	two-fold	no obvious effect on the tumor size	slight reduction of body weight	Peptide release rate ([5]; 5 day): 2.9%; Inhibition of EBNA1 dimerization/oligomerization [7]: eradicate all 90 mg EBNA1 dimers and oligomers; Reduced p65 expression level, cytosolic fraction [2]: 85%; Reduced p65 expression level, cytosolic fraction [3]: 87%
UCNP-P7: UCNP is NaGdF4:Yb^3+, Er^3+@NaGdF4 and the plurality of polypeptides is Ahx-FWLYGGRrRKGGYFMVF (SEQ ID NO: 7) ([Ahx]FWLYGGR[dR]RKGGYFMVF; also: UCNP conjugate)	–	0%	0%	0.2%	0.7%	1.0%	1.6%	2.6%	81.2%	58.5%	48.2%	36.1%	7.4%	0%	two-fold	no obvious effect on the tumor size	slight reduction of body weight	–
